To fix the notation:
B1: MLL5 (parent)
chain: TYLCERCQPRNLDKERAVLLQRRK
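Also: lentivirally expressed fusions sorted by FACS into six bins by GFP to DsRed ratio, PSI derived from sequencing read proportions per bin multiplied by bin number.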

The series covers variants of B1. Nature of the series: protein stability index of a GFP-peptide fusion (GPS, HEK-293T) (PSI 1-6); higher = more stable. The following applies: c terminus: a fixed tail appended.
Consider TYLCESCQPRNLDKERAVLLQRRK, for which the protein stability index turned out to be 2.83. Turning to TYLCEMCQPRNLDKERAVLLQRRK, the protein stability index came out at 1.81. The figure for TYLCELCQPRNLDKERAVLLQRRK is 1.49; for TYLCEGCQPRNLDKERAVLLQRRK it is 4.25; for TYLCETCQPRNLDKERAVLLQRRK it is 1.92. The figure for TYLCEVCQPRNLDKERAVLLQRRK is 2.42; for TYLCEICQPRNLDKERAVLLQRRK it is 2.07; for TYLCEKCQPRNLDKERAVLLQRRK it is 1.59. To TYLCEYCQPRNLDKERAVLLQRRK belongs 2.83; to TYLCECCQPRNLDKERAVLLQRRK, 2.2; to TYLCERCQPRNLDKERAVALQRRK, 1.76.

As to TYLCERCQPRNLDKERAVYLQRRK, the protein stability index was 2.83. The figure for TYLCERCQPRNLDKERAVHLQRRK is 2.54; for TYLCERCQPRNLDKERAVNLQRRK it is 2.08.

Take TYLCERCQPRNLDKERAVELQRRK: the protein stability index was 2.76. Consider TKLCERCQPRNLDKERAVLLQRRK, for which the protein stability index worked out at 3.44.

Take TRLCERCQPRNLDKERAVLLQRRK: the protein stability index was found to be 2.88. To TNLCERCQPRNLDKERAVLLQRRK belongs 2.43; to THLCERCQPRNLDKERAVLLQRRK, 2.58; to TVLCERCQPRNLDKERAVLLQRRK, 2.16. On to TQLCERCQPRNLDKERAVLLQRRK, for which the protein stability index amounted to 3.53. For the variant TPLCERCQPRNLDKERAVLLQRRK, the protein stability index was determined as 3.19. To TYLCERCQPRNLDKLRAVLLQRRK belongs 2.05. The figure for TYLCERCQPRNLDKQRAVLLQRRK is 2.24. The figure for TYLCERCQPRNLDKFRAVLLQRRK is 2.14; for TYLCERCQPRNLDKDRAVLLQRRK it is 2.42.

Take TYLCERCQPRNLDKTRAVLLQRRK: the protein stability index turned out to be 2.32. Turning to TYLCERCQPRNLDKRRAVLLQRRK, the protein stability index was determined as 2.34. The figure for TYLCERGQPRNLDKERAVLLQRRK is 3.59; for TYLCERNQPRNLDKERAVLLQRRK it is 3.93; for TYLCERWQPRNLDKERAVLLQRRK it is 3.6. The figure for TYLCERKQPRNLDKERAVLLQRRK is 3.34; for TYLCERQQPRNLDKERAVLLQRRK it is 3.65. To TYLCERCQPRNLDKERAVLLQRDK belongs 1.76.

As for TYLCERCQPRNLDKERAVLLQRKK, the protein stability index amounted to 2.91. The figure for TYLCERCQPRNLDKERAVLLQRWK is 2.39. To TYLCERCQPRNLDKERAVLLQRIK belongs 2.57. To TYLCERCQPRNLDKERAVLLQRLK belongs 1.47.

Turning to TYLCERCQPRNLMKERAVLLQRRK, the protein stability index was 2.

On to TYLCERCQPRNLVKERAVLLQRRK, for which the protein stability index came out at 1.88. The figure for TYLCERCQPRNLIKERAVLLQRRK is 2.23; for TYLCERCQPRNLEKERAVLLQRRK it is 3.13; for TYLCERCQPRNLCKERAVLLQRRK it is 2.24. TYLCERCQPRNLNKERAVLLQRRK: the protein stability index amounted to 2.47. Take TYLCERCQPRNLGKERAVLLQRRK: the protein stability index worked out at 2.71. Regarding TYLCERCQPRNLAKERAVLLQRRK, the protein stability index was 2.7. On to TYLCERCQPRNLQKERAVLLQRRK, for which the protein stability index is 2.53. To TYLCERCQPRNLSKERAVLLQRRK belongs 2.76. To TYLCERCQCRNLDKERAVLLQRRK belongs 2.76; to TYLCERCQGRNLDKERAVLLQRRK, 2.68.

Turning to TYLCERCQARNLDKERAVLLQRRK, the protein stability index amounted to 1.86.

Consider TYLCERCQVRNLDKERAVLLQRRK, for which the protein stability index was 2.36. To TYLCERCQDRNLDKERAVLLQRRK belongs 2.32; to TYLCERCQFRNLDKERAVLLQRRK, 2.15.

Regarding TYLCERCQNRNLDKERAVLLQRRK, the protein stability index was determined as 3.62. To TYLCERCQMRNLDKERAVLLQRRK belongs 2.08; to TYLCERCQYRNLDKERAVLLQRRK, 3.52. As to TYLCERCGPRNLDKERAVLLQRRK, the protein stability index amounted to 2.36. To TYLCERCIPRNLDKERAVLLQRRK belongs 1.79; to TYLCERCKPRNLDKERAVLLQRRK, 2.05; to TYLCERCAPRNLDKERAVLLQRRK, 2.74. As for TYLCERCWPRNLDKERAVLLQRRK, the protein stability index was determined as 4.94. To TYLCERCPPRNLDKERAVLLQRRK belongs 3.38; to TYLCERCTPRNLDKERAVLLQRRK, 2.72; to TYLCERCDPRNLDKERAVLLQRRK, 2.8. The figure for TYLCERCFPRNLDKERAVLLQRRK is 2.29. The figure for TYLCERCVPRNLDKERAVLLQRRK is 1.9; for TYLCERCQPRNLDKERNVLLQRRK it is 2.65; for TYLCERCQPRNLDKERTVLLQRRK it is 1.95. As to TYLCERCQPRNLDKERCVLLQRRK, the protein stability index is 2.08. To TYLCERCQPRNLDKERPVLLQRRK belongs 1.77; to TYLCERCQPRNLDKERHVLLQRRK, 2. The figure for TYLCERCQPRNLDKERMVLLQRRK is 2.58.

TYLCERCQPNNLDKERAVLLQRRK: the protein stability index turned out to be 2.84. TYLCERCQPQNLDKERAVLLQRRK: the protein stability index stood at 2.48. To TYLCERCQPWNLDKERAVLLQRRK belongs 1.66. Consider TYLCERCQPGNLDKERAVLLQRRK, for which the protein stability index worked out at 3.56. The figure for TYLCERCQPCNLDKERAVLLQRRK is 2.54; for TYLCERCQPRFLDKERAVLLQRRK it is 1.9; for TYLCERCQPRSLDKERAVLLQRRK it is 2.32.

Take TYLCERCQPRGLDKERAVLLQRRK: the protein stability index stood at 2.42. The figure for TYLCERCQPRWLDKERAVLLQRRK is 2.09; for TYLCERCQPRDLDKERAVLLQRRK it is 2.02. As for TYLCERCQPRKLDKERAVLLQRRK, the protein stability index was determined as 2.05.
